How the values were obtained:
template bleeding time = test system: template bleeding time; set-up: species or system Macaca fascicularis; conditions: cynomolgus monkey, in vivo
From the text: In order to evaluate one aspect of the safety of zsig37 and its effect on template bleeding time, a pre-clinical model in Macaca fascicularis was used. Time to cessation of bleeding from standardized incisions on the animal's forearm, a procedure previously described by Wu, et al., Blood, 2002, 99:3623-3628, was employed to assess the effect of zsig37 on bleeding.
Methods. Five female and twelve male, Macaca fascicularis weighing 2.3 to 4.6 kg were used as test subjects on this project. The animals were immobilized with ketamine hydrochloride (Phoenix Scientific) administered intramuscularly at approximately 10 mg/kg. Each animal was examined, and the animal determined to be acceptable for the study. The right forearm, abdomen, ventral neck and inguinal area were shaved free of hair. The animal was transported to the surgical suite (University of Washington Regional Primate Research Center), positioned inside a heated air circulation system and placed onto isoflurane (Abbott Laboratories) inhalation anesthesia delivered through positive pressure ventilation via an endotracheal tube. […] The time to cessation of bleeding was determined and recorded for each animal. Bleeding times were determined for each animal prior to any treatment, after low molecular weight heparin (Lovenox™, Rhone Polenc, Inc.) treatment and after zsig37 treatment.

TF-1 cells = test: Adhesion and spreading of TF-1 cells on zsig37-coated plates; format: cell-based; conditions: plates coated in PBS vs 0.1 M NaCO3
Description: The ability of zsig37 to stimulate adhesion and spreading of TF-1 cells was assayed as follows. A series of dilutions were prepared from C-terminal Glu-Glu-tagged zsig37, from 10 to 0.0625 ’g/ml, in either PBS or ELISA coating buffer (0.1 M NaCO3) and each was plated into a 96 well plate (Costar; Pleasanton, Calif.) at 100 μl/well. The plates were incubated at 37° C., 5% CO2 for 2 hours. The plates were then washed 3× with RPMI/10% FBS (RPMI 1640, 2 mM L-glutamine, 110 μg/ml sodium pyruvate, PSN and 10% heat inactivated fetal bovine serum) and allowed to block for 15 minutes.
TF-1 cells (derived from acute myeloid leukemia cells) were resuspended in RPMI/10% FBS and plated into at 10,000 cells/well into the zsig37CEE-coated 96 well plates at a final volume of 120 μl/well. The plate was incubated at 37° C. under 5% CO2 for 2 hours. The plates were then washed 3× with PBS and 200 μl/well growth media (RPMI/10% FBS, 5 ng/ml GM-CSF) was added. The cells were microscopically inspected before and after the wash.
A dye incorporation assay was also used to measure the number of adherent cells based on a colorimetric change and an increase in fluorescent signal. ALAMAR BLUE (AccuMed; Chicago, Ill.) was added to the 96 well plates and the cells were incubated at 37° C. under 5% CO2 overnight. […]

Row | Molecule | template bleeding time vs control (1.0 mg/kg BSA) (template bleeding time) | adherent cells (ALAMAR BLUE dye incorporation) (TF-1 cells)
1 | ReoPro: comparator in template bleeding time study, 0.25 mg/kg [reference compound] | unable to stop their bleeding | –
2 | zsig37CEE: zsig37 polypeptide having a C-terminal Glu-Glu tag (protein) LVLSRVPHVQGEQQEWEGTEELPSPPDHAERAEEQHEKYRPSQDQGLPASRCLRCCDPGTSMYPATAVPQINITILKGEKGDRGDRGLQGKYGKTGSAGARGHTGPKGQKGSMGAPGERCKSHYAAFSVGRKKPMHSNHYYQTVIFDTEFVNLYDHFNMFTGKFYCYVPGLYFFSLNVHTWNQKETYLHIMKNEEEVVILFAQVGDRSIMQSQSLMLELREQDQVWVRLYKGERENAIFSEELDTYITFSGYLVKHATEPEEYMPME | – | more adherent cells on the C-terminal Glu-Glu tagged (zsig37CEE)-PBS coated plates than on the zsig37CEE-0.1 M NaCO3 coated plates
